From the RNAGym collection of RNA variant scans (doi:10.1073/pnas.2313332121) come the findings set out here.

This sample holds only a part of the variants without activity. A value given as a limit tells only on which side of the number the result lay.

To fix the notation:
B1: TPR 5TU (parent)
chain: GGAUCUUCUCGAUCUAACAAAAAAGACAAAUCUGCCACAAAGCUUGAGAGCAUCUUCGGAUGCAGAGGCGGCAGCCUUCGGUGGCGCGAUAGCGCCAACGUUCUCAACUAUGACACGCAAAACGCGUGCUCCGUUGAAUGGAGUUUAUCAUG

Variants of B1 are the subject of the series. In words: polymerase ribozyme fitness, log enrichment relative to wild type (log ratio); higher = more active; in vitro selection for triplet polymerase activity. In a few lines:
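Streptavidin-bead capture of gel-excised extended constructs, followed by RT-PCR, closed a single triplicate in vitro selection round. That round began by annealing PCR-built, transcribed mutant libraries of each subunit of a heterodimeric triplet polymerase ribozyme with a biotinylated primer, the partner subunit and triplets, then incubating them frozen at −7 °C. After Illumina sequencing of inputs and outputs, genotypes needed ≥10 input reads and ≥1 read per output. Fitness is the base-2 logarithm of genotype enrichment over wild-type enrichment, using inverse-variance-weighted replicate averages.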
As to GGUUCUUCUCGAUCUAACAAAAAGGACAAAUGUGCCACAAAGCUUGAGAGCAUCUUCGGAUGCAGAGGCGGCAGCCUUCGGUGGCGCGAUAGCGCCAACGUUCUCAACUAUGACACGCAAAACGCGUGCUCCGUUGAAUGGAGUUUAUCAUG [A3U A24G C32G], the “polymerase ribozyme fitness (log ratio)” value was -4.15.
Regarding GGUUCUUCUCGAUCUACCAAAAAAGACAAAUCUGCCACAAAGCUUGAGAGCAUCUUCGGAUGCAGAGGCGGCAGCCUUCGGUGGCGCGAUAGCCCCAACGUUCUCAACUAUGACACGCAAAACGCGUGCUCCGUUGAAUGGAGUUUAUCAUG [A3U A17C G94C], the “polymerase ribozyme fitness (log ratio)” value is -0.825.
With GGUUCUUCUCGAUCUAACAAUAAAGACAAAUCUGCCACAAAGCUUGAGAUCAUCUUCAGAUGCAGAGGCGGCAGCCAUCGGUGGCGCGAUAGCGCCAACUUUCUCAACUAUGACACGCAAAACGCGUGCUCCGUUGGAUGGAGUUUAUCAUG [A3U A21U G50U G58A U77A G100U A137G] the figure was not above -4.2.
With GGUUCUUCUCGAUCUAACAUAAAAGACAAAUCUGCCACAAGGCUUGAGGGCAUCUUCGGAUGCUGAGGCGGCAGCCUUCGGUGGCGCGAUAGCGCCAACGUUCUCAAGUAUGACACGCAAAACGCGUGCUCCGUUGAAUGGAGUUUAUCAUG [A3U A20U A41G A49G A64U C108G] the figure was not above -4.2; with GGUUCUUCUCGAUCUAACAAAAAAGGCAAAUCUGCCACAAAGCUUGAGAGCAUCUUCGGAAGCAGAGGCGGCAGCCUUCGGUGGCGCGAUAACGCCAACGUUCUCAACUAUGACACGCAAAACGCGUGCUCCGUUGAAUGGAGUUUAUCAUG [A3U A26G U61A G92A], not above -4.2.
The figure for GGUUCUUCUCGAUCUAACAUAAAAGACAAAUCUGCCACAAAGCUUGAGACCAUCUUCGGAUGCAGAGGCGGCAGCCUUCGGUGGCGCGAUAGCGCCAACGUUCUCAACUAUGACACGCAAAACGCGUGCUCCGUUGAAUGGAGUUUAUCAUG [A3U A20U G50C] is not above -4.2; for GGUUCUUCUCGAUCUUACAAAAAAGACAAAUCUGCCACAAAGCUUGAGAGCAUUAUCGGAUGCAGAGGCGGCAGCCUUCGGUGGUGCGAUAGCGCCACUGUUCUCAACUAUGACACGCAAAACGCGUGGUCCGUUGAAUGGAGUUUAUCAUU [A3U A16U C54U U55A C85U A98C C99U C129G G152U] it is not above -4.2; for GGUUCUUCUCGAUCUAACAAAAUAGACAAAUCUGCCACAAAGCUUGAGAGCAUCUUCGGAUGCAGAGGCGGCAGCCUUCGGUGGCGCGAUAGCGCUAACGUUCUCAACUAUGACACGCAAAACGCGUGCUCCGUUGAAUGGAGUUUAUCAUG [A3U A23U C96U] it is not above -4.2.
On to GGUUCUUCUCGAUCUAUCAAAAAAGACAAAUCUGCCACAAAGCUUGAGAGCAUCUACGGAUGCAGAGGCGGCAGCCUUCGGUUGCGCGAUAGGGCGAACGUUCUCAACUAUGACACGCAAAACGGGUGCUCCGUUCAAUGGAGUUUAUCAUG [A3U A17U U56A G83U C93G C96G C125G G136C], for which the “polymerase ribozyme fitness (log ratio)” value is not above -4.2.
With GGUUCUUCUCGAUCUAACAAAACAGACAAAUCUGCCACAAAGCUUGAGAGCAUCUUCGGAUGCAGAGGCGGCAGCCUUCGGUGGCGCGAUAGCGCCAACGUUCUCAACUAUGACACGCAAAACGCGUGCUCCGUUGAAUGGAGUUUAUCAUG [A3U A23C] the figure was -3.76.
With GGUUCUUCUCGAUCUAACAAAGAAGACAAAUCUGCCACAAAGUUUGAGAGCAUCUUCGGAUGCAGAGACGGCAGCCUGCGGUGGCGCGAUAACGCCAACGUUCUCAUCUGUGGCACGCAAAACGCGUGCUCCGUUGAAUGGAGUUUAUCACG [A3U A22G C43U G68A U78G G92A A107U A110G A113G U151C] the figure was not above -4.2.
With GGUUCUUCUCGAUCUAGCAAAAAAGACAAAUCUGCCACAAAGCUUGAGCGCAUCUUCGGAUGCAGAGGCGGCAGCCUUCGGUGGCGCGAUAGAGCCAACGUUCACAACUAUGACACGCCAAACGCGUGCUCUGUUGAAUGCAGUGUAUCAUG [A3U A17G A49C C93A U104A A119C C132U G141C U145G] the figure was not above -4.2; with GGUUCUUCUCGAUCUACCAAAAAAGACAAAUCUGCCACAAAGCUUGAGAGCAUCUUCGGAUGCAGAGGCGGCAGCCUUCGGUGGCGCGUUAGCGCCAACGUUCUCAACUAUGACACGCAAAACGCGUGCUCUGUUGAAUGGAGUUUAUCAUG [A3U A17C A89U C132U], -1.09.
On to GGUUCUUCUCGAUCUAACUAAAAAGACAAAUCUGCCACAAAGCUUGAGAGCAUCUUUGGAUUCAGAGGUGGCAGCCUUCGGUGGUGCGAUAGCGCCAAGGUUCUCAACUAUGACACGCAAAACGCGUGCCCCGUUUAAUGGAGUUGAUCAUG [A3U A19U C57U G62U C69U C85U C99G U130C G136U U146G], for which the “polymerase ribozyme fitness (log ratio)” value is not above -4.2.
With GGUUCUUCUCGAUCUAACACAAAAGUCAAAUCUGCCACAAAGCUUGAGAGCAUCUUGGGAUGCAGAGGCGGCAGCCUUCGGUGGCGCGAUAGCGCCAACGUUCUCAAUUAUGACACGCAAAACGCGUGCUCCGUUGAAUGGAGUUUAUCAUG [A3U A20C A26U C57G C108U], the “polymerase ribozyme fitness (log ratio)” value is not above -4.2.
For the variant GGUUCUUCUCGAUCUAACACAAAAGACAAAUCUGCCACAAAGCUUGAGAGCAUCUUCCGAUGCAGAGGCGGCUGCCUUCGAUGGCGCGAUAGCGCCAACGUUCUCAACUAUGACACGCAAAACGCGUGCUCCGUUGAAUGGAGUUUCUCAUG [A3U A20C G58C A73U G81A A147C], the “polymerase ribozyme fitness (log ratio)” value was not above -4.2.
The figure for GGUUCUUCUCGAUCUAACAAACAAGACAAAUCUGCCACAAAGCUUGAGAGCAUCUUCGGAUGCAGAGGCGGCAGCCUUCGGUGGCGAGAUAUCGCCAACGUUCUCAACUAUGACACGCAAAACGCGUGCUCCGUUGAAUGGAGUUUAUCAUG [A3U A22C C87A G92U] is -0.18.
With GGUUCUUCUCGAUCUAACAAACAAGACAAACCUGCCACAAAGCUUGAGAGCAUCUUCGGAAGCAGAGGCGGCAGCCUUCGGUGGCGCGAUAGCGCCAACGUUCUCAACUAUGACACGCAAAACGCGUGCUCCGUUGAAUGGAGUUUAUCAUG [A3U A22C U31C U61A] the figure was -2.45; with GGUUCUUCUCGAUCUAACAACAAAGACAAAUCUGCCACAAAGCUUGAGAGCAUCUUCGGAUGCAGAGGAGGCAGCAUUCGGUGGCACGGUAGCGCCAACGUUCUCAACUAUGACACGCAAAGCGCGUGCUCCGUUGAAUGGAGUUUAUCAUG [A3U A21C C69A C76A G86A A89G A122G], not above -4.2.
